In US20200123233A1 (published 2020):

B1: IV10 (VHH)
VHH: QVQLQESGGGLVQAGGSLRLSCATSGRPFGGYAMAWFRQAPGKGREFVAAVTWSAGTTNYAGSVKDRFTVSRDNANNTMYLQMNSLKPEDTAVYICGAATGYRSTDRLSDPNWVNYWGQGTQVTVSS
B2: 213H7-15GS-214 F8 (VHH)
chain: EVQLVESGGGLVQAGGSLRLSCAASGRTLSSYRMGWFRQAPGKEREFISTISWNGRSTYYADSVKGRFIFSEDNAKNTVYLQMNSLKPEDTAVYYCAAALIGGYYSDVDAWSYWGPGTQVTVSSGGGGSGGGGSGGGGSEVQLVESGGDLVQAGGSLRLSCVASGSTYSINAMGWYRQAPGKLRELVAAFRTGGSTDYADSVKGRFTISRDTAKNTVYLQMNSLKPEDTAVYYCNAEVIYYPYDYWGQGTQVTVSS

Assays:
[1] = biological target: authentic influenza antigen of A/PR/8/34 (ATCC VR-1469), serotype H1N1 (influenza A virus A/PR/8/34 (H1N1), UniProt P03452 18-565); assay: ELISA, coated authentic AIV antigen, E. coli culture supernatant, anti-c-myc-HRP
[2] = biological target: T1, Glycoprotein G of rabies virus strain CVS-11 (Challenge Virus Standard-11, ATCC VR 959) (rabies virus, strain CVS-11); assay: cell-based or functional assay
T1 chain: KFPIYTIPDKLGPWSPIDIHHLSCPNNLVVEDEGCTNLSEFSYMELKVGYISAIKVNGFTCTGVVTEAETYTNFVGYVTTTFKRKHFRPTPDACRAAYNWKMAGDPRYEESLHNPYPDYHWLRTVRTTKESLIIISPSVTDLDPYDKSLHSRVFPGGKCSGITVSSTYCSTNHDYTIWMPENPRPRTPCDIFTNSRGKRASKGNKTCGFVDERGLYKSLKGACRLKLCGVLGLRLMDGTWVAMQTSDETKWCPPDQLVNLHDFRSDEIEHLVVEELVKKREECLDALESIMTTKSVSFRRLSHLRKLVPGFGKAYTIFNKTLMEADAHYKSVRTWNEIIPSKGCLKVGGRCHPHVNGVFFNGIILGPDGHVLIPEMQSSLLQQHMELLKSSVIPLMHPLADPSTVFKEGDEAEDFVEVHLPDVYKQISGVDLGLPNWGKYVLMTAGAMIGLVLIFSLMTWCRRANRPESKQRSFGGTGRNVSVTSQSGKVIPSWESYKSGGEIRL

authentic influenza antigen of A/PR/8/34 (ATCC VR-1469), serotype H1N1, sequence (P03452 18-565 limits assumed): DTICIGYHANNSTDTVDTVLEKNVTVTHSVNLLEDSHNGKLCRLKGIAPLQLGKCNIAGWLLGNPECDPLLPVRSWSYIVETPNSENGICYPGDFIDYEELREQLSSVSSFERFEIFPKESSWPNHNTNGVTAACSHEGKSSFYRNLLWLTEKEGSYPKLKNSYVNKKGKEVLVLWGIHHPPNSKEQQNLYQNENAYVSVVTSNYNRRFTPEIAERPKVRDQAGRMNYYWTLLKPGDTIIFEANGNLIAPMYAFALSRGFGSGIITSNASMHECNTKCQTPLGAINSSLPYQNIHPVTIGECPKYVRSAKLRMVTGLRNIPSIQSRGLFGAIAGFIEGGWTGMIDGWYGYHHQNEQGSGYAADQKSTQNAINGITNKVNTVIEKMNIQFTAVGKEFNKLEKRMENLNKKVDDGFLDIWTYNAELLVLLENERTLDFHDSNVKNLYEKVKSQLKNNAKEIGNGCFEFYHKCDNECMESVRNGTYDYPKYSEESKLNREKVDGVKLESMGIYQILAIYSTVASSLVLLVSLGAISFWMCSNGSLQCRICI

| Binder | Extinction at 450 nm in ELISA [1] [extinction at 450 nm] | CVS neutralizing antibody titre, nM IC50 (RFFIT) [2] [nM] | Potency (IU/nM) increase versus monovalent (RFFIT) [2] [fold] |
| --- | --- | --- | --- |
| B1 | 0.047 |  |  |
| B2 |  | 0.33 | 271 |
